The text below walks through data of article PMC6853982.

The test has as its target GFP-AtEH1/Pan1 (Arabidopsis) (UniProt Q9LM78). In words: FRET or BRET; FRET-FLIM in N. benthamiana leaf cells transiently co-expressing the GFP donor and RFP acceptor fusions; GFP-AtEH1/Pan1 alone as donor control; whole field images.
UniProt Q9LM78, sequence (Q9LM78 entry or part of it): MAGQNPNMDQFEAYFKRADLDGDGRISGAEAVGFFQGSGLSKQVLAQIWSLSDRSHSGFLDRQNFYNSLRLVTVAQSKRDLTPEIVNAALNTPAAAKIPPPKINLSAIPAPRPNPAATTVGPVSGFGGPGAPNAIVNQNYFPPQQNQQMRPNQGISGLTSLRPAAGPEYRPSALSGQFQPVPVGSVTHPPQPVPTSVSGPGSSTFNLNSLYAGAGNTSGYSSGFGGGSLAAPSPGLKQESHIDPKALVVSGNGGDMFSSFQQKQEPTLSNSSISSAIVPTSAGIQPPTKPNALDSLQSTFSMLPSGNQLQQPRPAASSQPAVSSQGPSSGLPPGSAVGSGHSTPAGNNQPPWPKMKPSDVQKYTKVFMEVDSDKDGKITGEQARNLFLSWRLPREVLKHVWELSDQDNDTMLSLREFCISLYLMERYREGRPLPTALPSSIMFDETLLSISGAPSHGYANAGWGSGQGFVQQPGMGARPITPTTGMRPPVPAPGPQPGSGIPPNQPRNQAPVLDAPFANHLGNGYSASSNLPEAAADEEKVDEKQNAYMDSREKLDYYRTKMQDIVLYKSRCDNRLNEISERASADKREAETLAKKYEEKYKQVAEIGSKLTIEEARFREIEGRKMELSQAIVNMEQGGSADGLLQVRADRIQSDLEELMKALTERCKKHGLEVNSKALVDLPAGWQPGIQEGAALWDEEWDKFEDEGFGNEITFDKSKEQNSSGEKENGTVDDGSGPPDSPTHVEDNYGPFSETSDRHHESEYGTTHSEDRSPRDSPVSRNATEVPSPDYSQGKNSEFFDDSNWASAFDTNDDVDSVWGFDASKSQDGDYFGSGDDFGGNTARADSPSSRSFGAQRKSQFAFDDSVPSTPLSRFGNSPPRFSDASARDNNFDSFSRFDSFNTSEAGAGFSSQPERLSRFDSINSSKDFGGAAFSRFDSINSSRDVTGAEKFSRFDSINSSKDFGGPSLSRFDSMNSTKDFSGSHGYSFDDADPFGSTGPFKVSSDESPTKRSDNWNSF

Regarding RFP-AtEH2/Pan1 (natural protein), the fluorescence life-time of the GFP donor in the presence of the RFP acceptor is 2.45 ns.
